Experimental data published in article PMC3689955.

Biological target: XRCC4/Ligase IV (XL) (UniProt Q13426)
Sequence (Q13426 whole entry, chain 1 of 2): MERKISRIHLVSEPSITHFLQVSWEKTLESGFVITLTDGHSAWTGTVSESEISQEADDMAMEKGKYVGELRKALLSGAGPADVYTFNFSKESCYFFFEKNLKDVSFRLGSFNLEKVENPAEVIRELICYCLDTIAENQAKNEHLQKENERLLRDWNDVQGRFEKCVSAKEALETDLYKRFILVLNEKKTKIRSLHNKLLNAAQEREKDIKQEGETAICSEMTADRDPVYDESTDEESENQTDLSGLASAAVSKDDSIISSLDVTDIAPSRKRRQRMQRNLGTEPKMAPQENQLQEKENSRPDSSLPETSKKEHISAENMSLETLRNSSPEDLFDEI
Sequence (P49917 whole entry, chain 2 of 2, further chain): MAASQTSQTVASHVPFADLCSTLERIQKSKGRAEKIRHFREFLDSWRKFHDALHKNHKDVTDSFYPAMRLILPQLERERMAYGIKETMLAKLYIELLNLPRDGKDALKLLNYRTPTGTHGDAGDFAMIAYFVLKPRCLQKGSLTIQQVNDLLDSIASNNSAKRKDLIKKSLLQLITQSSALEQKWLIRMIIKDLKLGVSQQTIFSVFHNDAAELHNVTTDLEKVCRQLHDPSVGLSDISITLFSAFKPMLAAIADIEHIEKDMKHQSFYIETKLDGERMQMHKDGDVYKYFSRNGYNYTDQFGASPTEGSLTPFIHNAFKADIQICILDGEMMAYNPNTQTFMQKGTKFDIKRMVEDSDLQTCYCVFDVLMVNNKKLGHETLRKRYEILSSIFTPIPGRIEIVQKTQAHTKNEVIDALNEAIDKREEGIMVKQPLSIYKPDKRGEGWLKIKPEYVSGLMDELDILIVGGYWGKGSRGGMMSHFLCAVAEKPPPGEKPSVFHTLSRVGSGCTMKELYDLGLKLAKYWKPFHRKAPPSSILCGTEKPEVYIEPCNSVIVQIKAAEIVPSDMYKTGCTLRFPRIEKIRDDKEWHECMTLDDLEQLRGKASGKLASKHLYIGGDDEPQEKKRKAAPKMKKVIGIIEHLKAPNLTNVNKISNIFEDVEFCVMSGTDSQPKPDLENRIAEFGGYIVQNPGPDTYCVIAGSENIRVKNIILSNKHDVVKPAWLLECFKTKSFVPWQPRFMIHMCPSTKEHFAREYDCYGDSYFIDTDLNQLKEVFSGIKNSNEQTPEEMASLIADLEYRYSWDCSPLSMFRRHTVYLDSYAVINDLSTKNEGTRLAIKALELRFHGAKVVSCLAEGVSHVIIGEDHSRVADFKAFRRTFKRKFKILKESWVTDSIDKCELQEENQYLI

XRCC4-like factor (XLF, also known as Cernunnos), sequence (Q9H9Q4 whole entry): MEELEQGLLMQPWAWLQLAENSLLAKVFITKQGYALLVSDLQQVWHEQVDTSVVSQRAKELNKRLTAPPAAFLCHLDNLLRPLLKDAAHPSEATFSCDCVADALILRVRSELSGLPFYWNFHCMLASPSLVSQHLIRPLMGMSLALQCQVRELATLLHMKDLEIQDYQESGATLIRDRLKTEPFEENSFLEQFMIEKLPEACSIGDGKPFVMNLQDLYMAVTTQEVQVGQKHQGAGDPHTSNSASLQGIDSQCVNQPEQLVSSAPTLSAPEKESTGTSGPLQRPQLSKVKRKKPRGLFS

stoichiometry N (XL to XLF molar ratio): 1
Substance: XRCC4-like factor (XLF, also known as Cernunnos) (from UniProt Q9H9Q4 1-299) (natural protein)
